This assay deals with SRPK1ΔNS3 (UniProt Q96SB4).

Among the data in publication PMC11211491, “Design of a covalent protein-protein interaction inhibitor of SRPKs to suppress angiogenesis and invasion of cancer cells” (Communications Chemistry, 2024) are IC50 of inhibition of the phosphorylation of SRSF1 by SRPK1ΔNS3 (in vitro kinase assay, [32P]ATP); blocked pair SRPK1-SRSF1 values, retold here.

aryl‑sulfonyl fluoride = aryl-sulfonyl fluoride group, a lysine-reactive covalent warhead for SuFEx reactions

Ac-RERARTRRK(aryl‑sulfonyl fluoride)RARTRERARTR-NH2 [DBS1-1] displayed an IC50 of inhibition of the phosphorylation of SRSF1 by SRPK1ΔNS3 (in vitro kinase assay, [32P]ATP); blocked pair SRPK1-SRSF1 of 640 nM.
